Source: US20190367627A1 (AGENUS, published 2019)
Positions count from the first letter of the chain named. Names may count otherwise.

T1: human OX40 (human, UniProt P43489 29-277)
T1 construct: Recombinantly expressed on transduced Jurkat cells; also called OX40 receptor; huOX40
T1 sequence: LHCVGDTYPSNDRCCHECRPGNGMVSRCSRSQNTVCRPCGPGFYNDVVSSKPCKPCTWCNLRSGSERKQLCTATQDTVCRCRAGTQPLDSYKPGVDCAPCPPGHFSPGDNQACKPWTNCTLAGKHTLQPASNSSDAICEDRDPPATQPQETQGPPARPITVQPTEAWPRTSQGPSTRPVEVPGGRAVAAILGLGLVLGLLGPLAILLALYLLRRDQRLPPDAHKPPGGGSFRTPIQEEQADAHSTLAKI

B1: pab1949 (antibody, human IgG1, kappa, V domains shown)
VH: EVQLVESGGGLVQPGGSLKLSCAASGFTFSGSAMHWVRQASGKGLEWVGRIRSKANSYATAYAASVKGRFTISRDDSKNTAYLQMNSLKTEDTAVYYCTSGIYDSSGYDYWGQGTLVTVSS
VL: not shown
notes: also called pab1949 (IgG1)
B2: pab1949 N56Y (antibody, IgG1, V domains shown)
VH: B1 VH with N56Y
VL: not shown
B3: pab2049 (antibody, human IgG1, V domains shown)
VH: B1 VH
VL: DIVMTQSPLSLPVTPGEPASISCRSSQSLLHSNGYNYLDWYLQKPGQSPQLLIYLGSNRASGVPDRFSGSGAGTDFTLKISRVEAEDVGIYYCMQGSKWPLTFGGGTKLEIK
notes: its constant region is not tied to this antibody; also called pab2049 (IgG1)
B4: pab1949 Q98K (antibody, V domains shown)
VH: B1 VH
VL: not shown
notes: Only variable domains are tied to this antibody
B5: pab1949 A96G/L97S (antibody, IgG1, V domains shown)
VH: B1 VH
VL: not shown
notes: as for B4
B6: pab1949 D104A (antibody, IgG1, V domains shown)
VH: B1 VH with D104A
VL: not shown
B7: pab1949 T99W (antibody, V domains shown)
VH: B1 VH
VL: not shown
notes: as for B4
B8: pab1949 Y103A (antibody, IgG1, V domains shown)
VH: B1 VH with Y103A
VL: not shown
B9: pab1949 D109A (antibody, IgG1, V domains shown)
VH: B1 VH with D109A
VL: not shown
B10: pab1949 Y108A (antibody, IgG1, V domains shown)
VH: B1 VH with Y108A
VL: not shown

Molecular target: T1, human OX40
Experiment: flow cytometry on Jurkat cells expressing human OX40
Description: FIGS. 1A, 1B, 1C, 1D, 1E, IF, 1G, 1H, 1I, and 1J are a set of flow cytometry plots showing the binding of anti-OX40 antibodies or an isotype control antibody to Jurkat cells expressing human OX40. The anti-OX40 antibodies tested include pab1949, pab2049, heavy chain variants of pab1949 (pab1949 N56Y, pab1949 Y103A, pab1949 D104A, pab1949 Y108A, and pab1949 D109A), and light chain variants of pab1949 (pab1949 A96G/L97S, pab1949 Q98K, and pab1949 T99W). All the anti-OX40 antibodies tested are IgG₁ antibodies. MFI values are plotted over a range of antibody concentrations.
The binding characteristics of the anti-OX40 antibodies to cells expressing human OX40 were analyzed by flow cytometry. Briefly, Jurkat cells were transduced to recombinantly express human OX40. Stable clones were generated via single-cell sorting (FACS ARIA Fusion). OX40 expression was verified by flow cytometry using positive control antibodies. For binding analysis, OX40-expressing Jurkat cells were incubated with anti-OX40 antibodies (12-point dose titration, 10 μg/ml to 0.00005 μg/ml) for 30 minutes at 4° C. The samples were washed twice and then incubated with FITC-conjugated mouse anti-human kappa detection antibody (Life Technologies, Catalog number: HP6062) for 30 minutes at 4° C. The samples were then washed twice and analyzed using the LSRFortessa flow cytometer (BD Biosciences). The flow cytometry plots were analyzed using a combination of FACS DIVA and WEHI Weasel software.

Binder | binding result
B1 | binds
B2 | binds
B3 | binds
B4 | binds
B5 | binds
B6 | binds
B7 | binds
B8 | binds
B9 | binds
B10 | binds
